The term EC50 denotes the midpoint of the concentration-response curve. A higher EC50 goes with a need for much substance.

The target of one assay is gB 69-78 peptide (hCMV) (UniProt P06473). Description: ELISA, gB 69-78 peptide. (In general: In an ELISA, binding on a coated surface is turned into a signal by an enzyme label.)
Assay [1] concerns the target hCMV gH (HEK293T transfectant) (hCMV), P12824. Description: cell competition; competitor 11B12-biotin. The conditions noted are these: remark: other sources report otherwise.
The target is the same in assay [2]. Put plainly: cell competition; competitor 3G16-biotin. The conditions noted are these: remark: other sources report otherwise.
The target is the same in assay [3]. Description: cell competition; competitor 13H11-biotin. The conditions noted are these: remark: other sources report otherwise.

B1: 6B4 (antibody, V domains shown)
VH: QVQLVESGGGVVQPGRSLRLSCAASGFRFNEFNMHWVRQAPGKGLEWVAVISIDGRHKYNADSVEGRFTISRDNSRNTLYLQMNSLRVEDTALYYCVTDGKAVDGFSGILEFWGQGTPVTVST
VL: EIVLTQSPATLSLSPGERATLSCWASQSVGGYLAWYQQKPGQAPRLLIYDASIRATGIPARFSGSGSGTHFTLTINSLEPEDFAVYYCQQRNNWPPLTFGGGTKVEIK
Take B1: the EC50 with gB 69-78 peptide (hCMV) amounted to 0.044 µg/mL.

B2: 3G16 (antibody, V domains shown)
VH: RAQLVQSAAEMKNPGASVKVSCEASGYTFTGYYVHWMRQAPGQGLEWMGWINPMTGATKSPQKFQGRVTMTRDTSTTATHIELTRLRSDDSAVFFCARGGPTSTRITGKRHFDLWGRGTLITVAS
VL: QSALTQPASVSGSPGESITISCTGTISDVGAYNSVSWYQQHSGTAPELIIYDVTNRPAGVSSRFSGSKSGNTASLTISWLQSEDEAEYYCSSYTTSDTYVFGSGTQVTVL
As to B2, the Inhibition of binding (%) in assay [1] was found to be 0%; in assay [2], 100%; in assay [3] it was 0%.

B3: 11B12 (antibody, V domains shown)
VH: QMQLVQSGPQVKKPGTSVKVSCKASGFTFTSSAMQWVRQARGQRPEWIGWIVLGSGNTNYAQKFQERVTLTRDMSTATAYMELSSLRSEDTAVYYCAADRGRGGYNVYTYWGQGTLVAVSS
VL: EIVMTQSPGTLSLSPGERATLSCRASQTISNTYVAWYQQKPGQAPRLLIYGASSRATGIPDRFSGSGSGTDFTLTIRRLEPEDFAVYYCQQNGQSPWTFGQGTNVEIK
Consider B3, for which the Inhibition of binding (%) in assay [1] was determined as 100%; in assay [2], 0%; in assay [3] it was 100%.

B4: 13H11 (antibody, V domains shown)
VH: QVQLVQSGAEVKKPGASVKVSCKASGYTFTNYYIHWVRQAPGQGLEWMGIIHPSSGGTSYAQKFQGRVTMTRDTSTSTVSMDLSSLRSEDTAVYYCGRAFRILGLSDVFVNDWGQGTVVTVSS
VL: DIQMTQSPSSLSASVGDRVTITCRASQGINNYLAWYQQKPGKVPKLLIYAASTLQSGVPSRFSGSGSGTAFTLTILSLQPEDVATYYCQKYNSAPFTFGPGTKVDIK
With B4, the Inhibition of binding (%) amounted to 100% in assay [1], 0% in assay [2] and 100% in assay [3].
